Results reported in the RNAGym collection of RNA variant scans (doi:10.1073/pnas.2313332121).

B1: TPR t1 (parent)
chain: GACCAAUCUGCCCUCAGAGCUCGAGAACAUCUUCGGAUGCAGAGGAGGCAGGCUUCGGUGGCGCGAUAGCGCCAACGUCCUCAACCUCCAAUGCAUCCCACCACAUGAUGAUGCCUGAAGAGCCUUGGUUUUUUG

Variants of: B1
Assay: polymerase ribozyme fitness, log enrichment relative to wild type (log ratio); higher = more active; in vitro selection for triplet polymerase activity
Method in brief: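 Fitness compares each genotype's enrichment to that of the wild type on a logarithmic scale, averaging replicates with inverse-variance weights. The logarithm is base 2. Enrichment came from Illumina sequencing of input and output libraries after one triplicate round of in vitro selection, which included frozen incubation at −7 °C, of PCR-built, transcribed mutant libraries of each subunit of a heterodimeric triplet polymerase ribozyme. Only genotypes with ≥10 input reads and ≥1 read per output were kept.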

Variant	polymerase ribozyme fitness (log ratio)
C64U U130C	-0.0426
G65A G120C U129A U132C	-6.78
G65A U87G	-5.9
G65C C101U	-4.71
G65C C114G	-6.28
G65C G69U C114G G117C C124U G128C	-5.15
G65U G120U	-5.78
A66C A74C A111C	-2.24
A66C A105U A108G C124A	-7.55
A66C G113A	-1.78
A66C U87G A118U U132A	-0.678
A66C U92A	-6.51
A66C U133A	-0.805
A66G C72U G107A C123A	-6.86
A66G C86G	-1.77
A66G C101A C104A U112A C114U	-5.6
A66G C123G U133A	1.16
A66G C124G	1.19
A66G G117C C124U U132A	-6.03
A66G U96C A118U	-1.1
A66U A75U G113A	-2.74

Variant	polymerase ribozyme fitness (log ratio)
A66U C70U C88G	-2.66
A66U C73G	-1.75
A66U C115A	-1.05
A66U G69U C88G C99A A119G	-5.79
A66U G77A	-0.981
A66U G93A A121G	0.349
A66U G128A	-3.15
A66U U78C U87A A111U	-4.73
A66U U81G U116G C124A	-5.38
U67A	-5.73
U67A C70G C89G C123G	-6.22
U67C	-2.8
U67C C82G A119G	-5.87
U67G	-7.14
A68G A100U U133A	-3.27
A68G C73G C82U	-5.21
A68G C80A	-6.54
A68G C97A	-7.14
A68G C114A	-3.39
A68G C115U	-3.75
A68G G71A C101U	-5.85

Variant	polymerase ribozyme fitness (log ratio)
A68G G113U	-4.53
A68G U78C	-3.07
A68G U81A C99U A111U C124U	-5.02
A68G U112G	-2.31
A68G U129A	-4.01
A68G U129G	-4.32
A68G U132A	-3.13
A68U A121G	-6.65
A68U A121U	-6.36
A68U G120A	-3.93
A68U G120C	-5.33
A68U U109A U129G	-7.47
A68U U112A	-5.84
A68U U130C	-5.02
G69A	-2.44
G69A A75G U96C	-3.29
G69A A91C	-5.04
G69A A95C G113A	-3.61
G69A C70U	-3.12
G69A C70U C124A	-4.91
G69A C73A C82A G120A G128A	-3.86

Variant	polymerase ribozyme fitness (log ratio)
G69A C82U U112G	-4.1
G69A C85A U106A U125A	-5.49
G69A C85U	-3.69
G69A C88A C123G C124A G135U	-3.37
G69A C89U C123G	-2.85
G69A C101A U132A	-3.65
G69A C102U	-4.72
G69A C124U	-1.25
G69A G77A C86U U112A	-2.89
G69A G77C C94U	-4.05
G69A G93A G113C	-6.22
G69A G110A	-3.77
G69A G110C	-6.02
G69A G120A	-1.48
G69A G120C	-0.596
G69A G120U U130A	-2.09
G69A G135A	-3.3
G69A U81A C124A	-1.99
G69A U81G A84C G93U C97G U112A	-6.86
G69A U92A	-6.38
